This assay has as its target human complement C1q (human). Description: ELISA. (In general: An ELISA detects its analyte on a solid surface through an enzyme-linked reagent.)

Results on one substance are retold here after PMC7746858.

Take “construct HLZ (6D8 heavy and light chains, C-terminal ZE3 fusion, no epitope tag) (antibody)”: the fold lower C1q binding than HLZd turned out to be 10 fold.
